{
  "source": "patent US20040166530A1",
  "about": "(BAYLOR COLLEGE OF MEDICINE, published 2004)",
  "key": {"[1]": {"molecular_target": "phosphorylated IκB peptide (residues 21-41, phosphorylated on Ser-32 and Ser-36)", "sequence (peptide, as listed by the source)": "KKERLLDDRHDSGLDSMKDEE", "assay": "HeLa lysate on IκB peptide beads, anti-Skp1 immunoblot (FIG. 8)"}, "[2]": {"molecular_target": "T1, Grr1/Skp1^F/Cdc53 complex (S. cerevisiae, UniProt P24814 1-1151; P52286 1-194; Q12018 1-815)", "T1 construct": "also called Cdc53/Skp1/Grr1 complex; Grr1/Skp1/Cdc53 complex; not shown: N-terminal His6-G10 (T7 gene 10) tag; N-terminal Flag tag; N-terminal Myc tag", "T1 sequence (P24814 whole entry, chain 1 of 2)": "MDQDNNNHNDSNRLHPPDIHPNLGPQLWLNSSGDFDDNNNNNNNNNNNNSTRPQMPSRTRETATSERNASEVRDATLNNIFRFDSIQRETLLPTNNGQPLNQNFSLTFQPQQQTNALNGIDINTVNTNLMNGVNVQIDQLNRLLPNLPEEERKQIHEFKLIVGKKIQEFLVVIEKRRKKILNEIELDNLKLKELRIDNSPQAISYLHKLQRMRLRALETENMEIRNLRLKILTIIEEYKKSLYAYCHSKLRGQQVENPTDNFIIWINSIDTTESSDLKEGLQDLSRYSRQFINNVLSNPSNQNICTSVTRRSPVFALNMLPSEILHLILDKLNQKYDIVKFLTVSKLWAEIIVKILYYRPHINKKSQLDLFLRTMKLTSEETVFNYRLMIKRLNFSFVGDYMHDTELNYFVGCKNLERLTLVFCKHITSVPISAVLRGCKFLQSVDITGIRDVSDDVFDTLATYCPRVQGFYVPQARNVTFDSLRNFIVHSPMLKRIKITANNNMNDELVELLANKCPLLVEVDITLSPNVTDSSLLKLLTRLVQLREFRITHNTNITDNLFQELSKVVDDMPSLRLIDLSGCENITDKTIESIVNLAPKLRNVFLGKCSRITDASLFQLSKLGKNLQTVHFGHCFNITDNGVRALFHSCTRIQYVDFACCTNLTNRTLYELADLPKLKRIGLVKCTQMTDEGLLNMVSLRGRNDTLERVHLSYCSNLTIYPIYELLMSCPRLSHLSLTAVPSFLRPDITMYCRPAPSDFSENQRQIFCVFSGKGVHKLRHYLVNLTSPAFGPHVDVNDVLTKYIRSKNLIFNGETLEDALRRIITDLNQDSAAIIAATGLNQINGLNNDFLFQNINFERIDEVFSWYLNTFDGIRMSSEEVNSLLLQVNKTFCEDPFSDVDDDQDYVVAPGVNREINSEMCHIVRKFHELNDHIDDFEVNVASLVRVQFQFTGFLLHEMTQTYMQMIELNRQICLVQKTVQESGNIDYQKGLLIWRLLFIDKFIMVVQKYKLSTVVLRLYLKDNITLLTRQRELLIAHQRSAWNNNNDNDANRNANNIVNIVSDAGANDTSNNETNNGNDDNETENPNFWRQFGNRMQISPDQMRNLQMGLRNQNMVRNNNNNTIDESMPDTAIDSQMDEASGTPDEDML", "T1 sequence (P52286 whole entry, chain 2 of 2)": "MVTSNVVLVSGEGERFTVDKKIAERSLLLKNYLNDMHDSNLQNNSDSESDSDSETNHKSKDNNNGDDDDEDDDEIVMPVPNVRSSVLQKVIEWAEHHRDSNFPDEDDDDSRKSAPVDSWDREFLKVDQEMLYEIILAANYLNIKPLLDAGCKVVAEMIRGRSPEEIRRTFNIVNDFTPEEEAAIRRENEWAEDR", "assay": "binding of 32P-labeled Sic1 complexes to anti-Skp1^F immune complexes, autoradiography (FIG. 4B)", "description": "These experiments were conducted as described above, with the exception being that Grr1 was substituted for Cdc4 (approximately 100 ng). Proteins were separated by SDS-PAGE, and blotted with anti-Skp1 anti-Myc to detect Grr1G10 and Cdc53^M, with anti-Skp1 antibodies.\nIn this Figure, lanes 2-5 contain anti-Skp1^F immune complexes derived from insect cells infected with the indicated baculovirus combinations were used for binding reactions with ³²P-labeled Sic1 complexes. Ten percent of the input Sic1 complex (lane 1) was included as a control. The presence of Cdc4, Skp1, Cdc53, and Grr1 was verified by immunoblotting."}, "[3]": {"molecular_target": "Flag-Cdc4 (Cdc4^F) (S. cerevisiae) (UniProt P07834)", "assay": "binding reaction with anti-Flag (Cdc4^F) immune complexes with increasing Skp1, immunoblot (FIG. 2D)"}, "[4]": {"molecular_target": "T1, Grr1/Skp1^F/Cdc53 complex", "assay": "binding of 32P-labeled Cln kinase complexes to anti-Skp1^F immune complexes, autoradiography (FIG. 5A)"}, "[5]": {"molecular_target": "Cdc4/Skp1^F complex (S. cerevisiae) (UniProt P52286)", "sequence (P52286 whole entry, one chain of several)": "as the sequence (P52286 whole entry, chain 2 of 2) above", "assay": "binding of 32P-labeled Cln kinase complexes to anti-Skp1^F immune complexes, autoradiography (FIG. 5A)"}, "[6]": {"molecular_target": "T2, Myc-tagged Cdc53 (Cdc53^M) (S. cerevisiae, UniProt Q12018 1-815)", "T2 construct": "Expressed from baculovirus in insect cells; not shown: N-terminal Myc tag", "T2 sequence (looked up)": "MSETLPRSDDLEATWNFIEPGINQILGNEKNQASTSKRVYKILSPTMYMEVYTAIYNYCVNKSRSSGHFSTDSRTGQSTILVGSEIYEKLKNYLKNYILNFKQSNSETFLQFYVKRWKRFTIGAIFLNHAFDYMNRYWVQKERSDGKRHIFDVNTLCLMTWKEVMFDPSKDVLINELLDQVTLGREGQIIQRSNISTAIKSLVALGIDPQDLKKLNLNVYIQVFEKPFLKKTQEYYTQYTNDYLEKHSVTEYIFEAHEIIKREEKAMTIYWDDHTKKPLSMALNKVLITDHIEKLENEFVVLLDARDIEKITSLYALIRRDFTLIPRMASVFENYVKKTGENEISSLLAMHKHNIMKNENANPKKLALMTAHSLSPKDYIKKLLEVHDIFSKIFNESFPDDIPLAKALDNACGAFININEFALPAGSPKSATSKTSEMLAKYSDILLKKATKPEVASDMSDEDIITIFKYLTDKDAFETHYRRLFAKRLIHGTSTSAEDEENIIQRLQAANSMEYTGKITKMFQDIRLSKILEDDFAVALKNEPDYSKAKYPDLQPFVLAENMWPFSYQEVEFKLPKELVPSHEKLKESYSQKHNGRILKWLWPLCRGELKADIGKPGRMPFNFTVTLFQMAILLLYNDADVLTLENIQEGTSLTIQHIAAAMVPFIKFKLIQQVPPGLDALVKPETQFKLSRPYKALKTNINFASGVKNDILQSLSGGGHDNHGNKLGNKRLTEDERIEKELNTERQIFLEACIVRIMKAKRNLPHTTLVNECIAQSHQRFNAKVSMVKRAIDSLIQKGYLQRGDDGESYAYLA", "assay": "anti-Myc immunoprecipitation from co-infected insect cells, immunoblot (FIG. 1A)", "description": "Insect cells were co-infected with various combinations of baculoviruses expressing Myc-tagged Cdc53 (Cdc53^M), Cdc34, Cdc4, and Skp1. Anti-Myc immune complexes from lysates of these infected cells were immunoblotted to identify associated proteins (See, FIG. 1A). […] Thus, one function of Skp1 is to facilitate association of Cdc53 with Cdc4. […] Furthermore, it appeared that Cdc53 can simultaneously associate with both Cdc34 and Skp1, as the association of Gst-Skp1 with Cdc34 is enhanced in the presence of Cdc53^M (See, FIG. 1C).\nFor recombinant protein expression and assembly of complexes, 4×10⁵ insect cells (Hi5, Invitrogen) were infected with the indicated virus combinations for 40 hours. These combinations included baculoviruses expressing Myc-tagged Cdc53 (Cdc53^M), Cdc34, Cdc4, and Skp1. Cells were then harvested and disrupted in lysis buffer (50 mM Tris-HCl (pH 7.5), 150 mM NaCl, 0.5% Nonidet P40, 10 mM NaF, 10 mM β-glycerol phosphate, 1 mM PMSF, and 5 μg/ml each leupeptin, antipain, and aprotinin). For isolation of protein complexes, typically about 3 ml of lysis buffer was used per 0.5×10⁸ cells.\nTo examine the assembly of recombinant yeast proteins, 0.4 ml lysate were typically derived from 2×10⁶ cells. […]"}, "[7]": {"molecular_target": "T2, Myc-tagged Cdc53 (Cdc53^M)", "assay": "anti-Cdc53^M immune complexes from insect cells, immunoblot (FIG. 2C)", "description": "To examine the assembly of recombinant yeast proteins, 0.4 ml lysate were typically derived from 2×10⁶ cells. […] Immunopurification was performed by incubating the lysates at 4° C. for 2 hours with 4 μg of the anti-Myc or anti-G10 antibody and 8 μl of Protein A-Sepharose, or with 8 μl of immobilized anti-Flag antibodies (Kodak; See, Example 1). Immune complexes were washed three times with 1 ml of lysis butter prior to SDS-PAGE.\nAssociated proteins were then washed three times with 1 ml of lysis buffer prior to SDS-PAGE and immunoblotting, were performed as described above.\nAs shown in this Figure, phosphorylated Sic1 efficiently associates with Cdc53/Skp1/Cdc4 complexes, and this association is dependent upon the presence of Skp1 (See, FIG. 2C, lanes 6 and 8). Typically, 10-20% of the input phosphorylated Sic1 was bound at about 20 nM Sic1. […] Consistent with the results in FIG. 1, the level of Cdc4 found in immune complexes lacking Skp1 were >10-fold lower than that found in the presence of Skp1."}},
  "data": [
    {"molecule": "Skp1 (in HeLa cell lysates) (from UniProt P63208 2-163)", "values": [
      {"measurement": "percent of the Skp1 in the extracts that can associate with IκB", "setting": "[1]", "value": 1, "unit": "%"}
    ]},
    {"molecule": "phosphorylated Sic1 (other, S. cerevisiae, UniProt P38634 1-284, looked up, phosphorylated in vitro by Gst-Cdc28HA/Cln1HA/Cks1 with ATP; sites not stated, also called Cln1/Cdc28-phosphorylated Sic1; phosphorylated Sic1 complexes) MTPSTPPRSRGTRYLAQPSGNTSSSALMQGQKTPQKPSQNLVPVTPSTTKSFKNAPLLAPPNSNMGMTSPFNGLTSPQRSPFPKSSVKRTLFQFESHDNGTVREEQEPLGRVNRILFPTQQNVDIDAAEEEEEGEVLLPPSRPTSARQLHLSLERDEFDQTHRKKIIKDVPGTPSDKVITFELAKNWNNNSPKNDARSQESEDEEDIIINPVRVGKNPFASDELVTQEIRNERKRAMLRENPDIEDVITYVNKKGEVVEKRRLTDEEKRRFKPKALFQSRDQEH", "values": [
      {"measurement": "binding result", "setting": "[2]", "value": "no binding"},
      {"measurement": "fold stimulation by Skp1 of the association of Sic1 with Cdc4", "setting": "[3]", "value": 5, "unit": "fold"}
    ]},
    {"molecule": "phosphorylated Cln2HA (protein, S. cerevisiae, UniProt P20438 1-545, looked up, not shown: small tags and cut ends, autophosphorylated in Cln2/Cdc28 complexes with ATP; sites not stated) MASAEPRPRMGLVINAKPDYYPIELSNAELLSHFEMLQEYHQEISTNVIAQSCKFKPNPKLIDQQPEMNPVETRSNIITFLFELSVVTRVTNGIFFHSVRLYDRYCSKRIVLRDQAKLVVATCLWLAAKTWGGCNHIINNVVIPTGGRFYGPNPRARIPRLSELVHYCGDGQVFDESMFLQMERHILDTLNWNIYEPMINDYVLNVDENCLMQYELYENQVTYDKQCSEKRQSQLSQDSDATVDERPYQNEEEEEEDLKLKIKLINLKKFLIDVSAWQYDLLRYELFEVSHGIFSIINQFTNQDHGPFLMTPMTSESKNGEILSTLMNGIVSIPNSLMEVYKTVNGVLPFINQVKEYHLDLQRKLQIASNLNISRKLTISTPSCSFENSNSTSIPSPASSSQSHTPMRNMSSLSDNSVFSRNMEQSSPITPSMYQFGQQQSNSICGSTVSVNSLVNTNNKQRIYEQITGPNSNNATNDYIDLLNLNESNKENQNPATAHYLNGGPPKTSFINHGMFPSPTGTINSGKSSSASSLISFGMGNTQVI", "values": [
      {"measurement": "percent of the input associated (% of the input)", "setting": "[4]", "value": 40},
      {"measurement": "percent of the input associated (% of the input)", "setting": "[5]", "value": 6}
    ]},
    {"molecule": "Cdc34 (enzyme, S. cerevisiae, UniProt P14682 1-295, looked up, Untagged baculovirus form in the assembly experiments; also called E2 Cdc34) MSSRKSTASSLLLRQYRELTDPKKAIPSFHIELEDDSNIFTWNIGVMVLNEDSIYHGGFFKAQMRFPEDFPFSPPQFRFTPAIYHPNVYRDGRLCISILHQSGDPMTDEPDAETWSPVQTVESVLISIVSLLEDPNINSPANVDAAVDYRKNPEQYKQRVKMEVERSKQDIPKGFIMPTSESAYISQSKLDEPESNKDMADNFWYDSDLDDDENGSVILQDDDYDDGNNHIPFEDDDVYNYNDNDDDDERIEFEDDDDDDDDSIDNDSVMDRKQPHKAEDESEDVEDVERVSKKI", "values": [
      {"measurement": "binding result", "setting": "[6]", "value": "binds"}
    ]},
    {"molecule": "Cdc4 (other, S. cerevisiae, UniProt P07834 1-779, looked up, Untagged, expressed from baculovirus in insect cells) MGSFPLAEFPLRDIPVPYSYRVSGGIASSGSVTALVTAAGTHRNSSTAKTVETEDGEEDIDEYQRKRAAGSGESTPERSDFKRVKHDNHKTLHPVNLQNTGAASVDNDGLHNLTDISNDAEKLLMSVDDGSAAPSTLSVNMGVASHNVAAPTTVNAATITGSDVSNNVNSATINNPMEEGALPLSPTASSPGTTTPLAKTTKTINNNNNIADLIESKDSIISPEYLSDEIFSAINNNLPHAYFKNLLFRLVANMDRSELSDLGTLIKDNLKRDLITSLPFEISLKIFNYLQFEDIINSLGVSQNWNKIIRKSTSLWKKLLISENFVSPKGFNSLNLKLSQKYPKLSQQDRLRLSFLENIFILKNWYNPKFVPQRTTLRGHMTSVITCLQFEDNYVITGADDKMIRVYDSINKKFLLQLSGHDGGVWALKYAHGGILVSGSTDRTVRVWDIKKGCCTHVFKGHNSTVRCLDIVEYKNIKYIVTGSRDNTLHVWKLPKESSVPDHGEEHDYPLVFHTPEENPYFVGVLRGHMASVRTVSGHGNIVVSGSYDNTLIVWDVAQMKCLYILSGHTDRIYSTIYDHERKRCISASMDTTIRIWDLENIWNNGECSYATNSASPCAKILGAMYTLQGHTALVGLLRLSDKFLVSAAADGSIRGWDANDYSRKFSYHHTNLSAITTFYVSDNILVSGSENQFNIYNLRSGKLVHANILKDADQIWSVNFKGKTLVAAVEKDGQSFLEILDFSKASKINYVSNPVNSSSSSLESISTSLGLTRTTIIP", "values": [
      {"measurement": "fold lower level of Cdc4 in immune complexes lacking Skp1 than in the presence of Skp1", "setting": "[7]", "value": "> 10", "unit": "fold"}
    ]},
    {"molecule": "phosphorylated Cln1HA (protein, S. cerevisiae, UniProt P20437 1-546, looked up, not shown: small tags and cut ends, autophosphorylated in Cln1/Cdc28 complexes with ATP; sites not stated) MNHSEVKTGLIVTAKQTYYPIELSNAELLTHYETIQEYHEEISQNVLVQSSKTKPDIKLIDQQPEMNPHQTREAIVTFLYQLSVMTRVSNGIFFHAVRFYDRYCSKRVVLKDQAKLVVGTCLWLAAKTWGGCNHIINNVSIPTGGRFYGPNPRARIPRLSELVHYCGGSDLFDESMFIQMERHILDTLNWDVYEPMINDYILNVDENCLIQYELYKNQLQNNNSNGKEWSCKRKSQSSDDSDATVEEHISSSPQSTGLDGDTTTMDEDEELNSKIKLINLKRFLIDLSCWQYNLLKFELYEICNGMFSIINKFTNQDQGPFLSMPIGNDINSNTQTQVFSIIINGIVNSPPSLVEVYKEQYGIVPFILQVKDYNLELQKKLQLASTIDLTRKIAVNSRYFDQNASSSSVSSPSTYSSGTNYTPMRNFSAQSDNSVFSTTNIDHSSPITPHMYTFNQFKNESACDSAISVSSLPNQTQNGNMPLSSNYQNMMLEERNKENRIPNSSSAEIPQRAKFMTTGIFQNTGELTNRASSISLSLRNHNSSQL", "values": [
      {"measurement": "percent of the input associated (% of the input)", "setting": "[4]", "value": 40},
      {"measurement": "percent of the input associated (% of the input)", "setting": "[5]", "value": 6}
    ]}
  ]
}
